For assay [1], the target named is T1, SMG5–7 TPR complex (heterodimer of SMG5 TPR and SMG7 TPR) (human, UniProt Q9UPR3 1-803; Q92540 1-499, Δ408–632).
T1 construct: SMG5, human, residues 1–803 with the predicted insertion 408–632 removed (SMG5 TPR); SMG7, human, residues 1–499 (SMG7 TPR); Written SMG5-His and His-(TEV)-SMG7 in the methods; also called SMG5–SMG7; SMG5–7 TPR heterodimer; not shown: His, N-terminal, cleaved; copies: 1 + 1
T1 sequence (looked up) 1: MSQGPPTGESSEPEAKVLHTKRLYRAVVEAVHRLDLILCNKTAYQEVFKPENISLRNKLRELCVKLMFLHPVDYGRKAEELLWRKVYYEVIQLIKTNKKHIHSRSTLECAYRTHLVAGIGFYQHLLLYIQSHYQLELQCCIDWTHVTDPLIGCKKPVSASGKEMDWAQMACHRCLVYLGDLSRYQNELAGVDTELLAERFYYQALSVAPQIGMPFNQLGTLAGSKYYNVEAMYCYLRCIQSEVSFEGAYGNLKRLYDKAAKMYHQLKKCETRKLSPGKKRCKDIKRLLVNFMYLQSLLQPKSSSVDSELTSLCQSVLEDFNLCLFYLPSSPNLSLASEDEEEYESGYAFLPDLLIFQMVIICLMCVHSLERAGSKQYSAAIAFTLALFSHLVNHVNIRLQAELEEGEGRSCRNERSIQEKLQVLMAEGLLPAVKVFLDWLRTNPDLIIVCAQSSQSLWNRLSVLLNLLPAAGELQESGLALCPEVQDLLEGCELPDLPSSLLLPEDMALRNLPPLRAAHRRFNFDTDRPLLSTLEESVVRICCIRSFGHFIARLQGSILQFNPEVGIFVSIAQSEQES
T1 sequence (looked up) 2: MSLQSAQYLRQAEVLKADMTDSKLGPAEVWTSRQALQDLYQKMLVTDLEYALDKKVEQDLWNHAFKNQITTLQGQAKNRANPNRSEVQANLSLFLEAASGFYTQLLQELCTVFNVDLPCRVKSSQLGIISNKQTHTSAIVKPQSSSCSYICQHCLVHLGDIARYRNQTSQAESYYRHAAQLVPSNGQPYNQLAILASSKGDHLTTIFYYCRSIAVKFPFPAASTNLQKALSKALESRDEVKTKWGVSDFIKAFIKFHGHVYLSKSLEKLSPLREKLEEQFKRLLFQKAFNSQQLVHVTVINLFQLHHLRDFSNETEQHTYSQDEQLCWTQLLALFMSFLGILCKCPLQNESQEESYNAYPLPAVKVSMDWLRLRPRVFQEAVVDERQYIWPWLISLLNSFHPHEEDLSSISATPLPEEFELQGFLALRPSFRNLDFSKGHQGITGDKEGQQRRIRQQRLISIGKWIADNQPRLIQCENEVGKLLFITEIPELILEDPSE
As to the kind of experiment: pull-down; GST pull-down, one prey: ∼2 μg GST-tagged bait with equal amount of untagged prey in 20 mM HEPES pH 7.5, 125 mM NaCl, 2% glycerol, 2 mM DTT (45 μl), 45 min at room temperature; glutathione–Sepharose beads in 20 mM HEPES pH 7.5, 150 mM NaCl, 10% glycerol, 2 mM DTT, 0.1% NP-40, 1 h at 4°C; eluted with glutathione; SDS-PAGE, Coomassie; GST-UPF1 constructs pre-treated with SMG1 wt or SMG1 KD where indicated. The conditions noted are these: both partners purified.

For assay [2], the target named is T2, SMG6fl (HA-Flag tagged, purified from HEK 293T cells) (human, UniProt Q86US8 1-1419).
T2 construct: SMG6, human, full length (SMG6CT ends at residue 1419)
The assay is described as follows: pull-down; GST pull-down as in Figure 1C with GST-UPF1fl as bait and several preys added together (SMG6fl, UPF2, UPF3, EJC; or SMG6fl and SMG5–7 TPR after treatment with SMG1 wt or KD); Coomassie. To be noted: both partners purified.

Ends that are not written are not given here.

T2 sequence (Q86US8 whole entry): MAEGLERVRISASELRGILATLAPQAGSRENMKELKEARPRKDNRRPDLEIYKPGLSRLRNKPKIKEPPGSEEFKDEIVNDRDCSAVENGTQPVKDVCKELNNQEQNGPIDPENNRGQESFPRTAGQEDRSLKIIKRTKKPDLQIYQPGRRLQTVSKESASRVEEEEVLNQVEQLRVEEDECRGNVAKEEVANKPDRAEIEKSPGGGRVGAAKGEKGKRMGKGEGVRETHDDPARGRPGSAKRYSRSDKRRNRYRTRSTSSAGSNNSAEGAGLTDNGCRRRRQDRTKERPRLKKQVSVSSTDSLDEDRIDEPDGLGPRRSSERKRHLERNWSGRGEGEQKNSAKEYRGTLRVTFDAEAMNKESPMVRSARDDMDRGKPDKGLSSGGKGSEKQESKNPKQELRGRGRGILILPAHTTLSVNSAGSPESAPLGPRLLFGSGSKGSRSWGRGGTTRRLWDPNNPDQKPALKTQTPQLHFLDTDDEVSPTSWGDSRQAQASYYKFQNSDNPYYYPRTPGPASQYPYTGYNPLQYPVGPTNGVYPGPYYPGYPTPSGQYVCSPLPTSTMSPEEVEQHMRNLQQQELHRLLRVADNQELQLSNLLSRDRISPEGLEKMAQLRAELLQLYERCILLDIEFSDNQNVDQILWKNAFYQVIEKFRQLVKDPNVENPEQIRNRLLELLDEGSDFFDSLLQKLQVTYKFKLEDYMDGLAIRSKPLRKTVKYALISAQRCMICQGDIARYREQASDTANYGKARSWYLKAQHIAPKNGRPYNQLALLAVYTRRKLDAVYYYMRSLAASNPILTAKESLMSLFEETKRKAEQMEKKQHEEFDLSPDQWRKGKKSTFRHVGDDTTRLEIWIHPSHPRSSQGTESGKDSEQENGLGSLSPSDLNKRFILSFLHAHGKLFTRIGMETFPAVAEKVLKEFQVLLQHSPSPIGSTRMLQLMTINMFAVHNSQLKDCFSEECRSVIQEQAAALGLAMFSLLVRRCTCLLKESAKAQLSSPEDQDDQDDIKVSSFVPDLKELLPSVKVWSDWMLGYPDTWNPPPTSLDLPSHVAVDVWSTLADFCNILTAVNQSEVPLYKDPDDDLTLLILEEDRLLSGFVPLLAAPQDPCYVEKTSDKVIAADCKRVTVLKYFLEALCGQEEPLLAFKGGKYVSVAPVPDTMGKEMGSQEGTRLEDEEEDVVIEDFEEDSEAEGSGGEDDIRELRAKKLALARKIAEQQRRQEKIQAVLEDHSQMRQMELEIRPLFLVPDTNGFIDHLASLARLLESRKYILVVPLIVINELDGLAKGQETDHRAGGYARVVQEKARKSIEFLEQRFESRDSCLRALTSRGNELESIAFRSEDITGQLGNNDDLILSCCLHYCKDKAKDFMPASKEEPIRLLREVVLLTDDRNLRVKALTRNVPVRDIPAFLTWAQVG

B1: GST-UPF1CT2 (residues 1070–1118) phosphorylated in vitro by SMG1 wt (domain or fragment, human, UniProt Q92900-2 1070-1118, looked up)
chain: PGLSQPELSQDSYLGDEFKSQIDVALSQDSTYQGERAYQHGGVTGLSQY
modifications: not fully specified (N-terminus); also: phosphorylated in vitro by SMG1, sites not given here, GST fusion partner not in chain
notes: source: E. coli, purified, then phosphorylated in vitro with SMG1 wt
As to B1, the binding result in assay [1] was “binds”.

B2: GST-UPF1CT1 (residues 1052–1118) phosphorylated in vitro by SMG1 wt (domain or fragment, human, UniProt Q92900-2 1052-1118, looked up)
chain: {GST}-GALTQGYISMSQPSQMSQPGLSQPELSQDSYLGDEFKSQIDVALSQDSTYQGERAYQHGGVTGLSQY
modifications: also: phosphorylated in vitro by SMG1 at SQ motifs, sites not given here
notes: as for B1
For B2, the binding result in assay [1] is given as “binds”.

B3: GST-UPF1fl, unphosphorylated (mock-treated with SMG1 KD or not treated) (natural protein, human, UniProt Q92900-2 1-1118, looked up)
chain: MSVEAYGPSSQTLTFLDTEEAELLGADTQGSEFEFTDFTLPSQTQTPPGGPGGPGGGGAGGPGGAGAGAAAGQLDAQVGPEGILQNGAVDDSVAKTSQLLAELNFEEDEEDTYYTKDLPIHACSYCGIHDPACVVYCNTSKKWFCNGRGNTSGSHIVNHLVRAKCKEVTLHKDGPLGETVLECYNCGCRNVFLLGFIPAKADSVVVLLCRQPCASQSSLKDINWDSSQWQPLIQDRCFLSWLVKIPSEQEQLRARQITAQQINKLEELWKENPSATLEDLEKPGVDEEPQHVLLRYEDAYQYQNIFGPLVKLEADYDKKLKESQTQDNITVRWDLGLNKKRIAYFTLPKTDSDMRLMQGDEICLRYKGDLAPLWKGIGHVIKVPDNYGDEIAIELRSSVGAPVEVTHNFQVDFVWKSTSFDRMQSALKTFAVDETSVSGYIYHKLLGHEVEDVIIKCQLPKRFTAQGLPDLNHSQVYAVKTVLQRPLSLIQGPPGTGKTVTSATIVYHLARQGNGPVLVCAPSNIAVDQLTEKIHQTGLKVVRLCAKSREAIDSPVSFLALHNQIRNMDSMPELQKLQQLKDETGELSSADEKRYRALKRTAERELLMNADVICCTCVGAGDPRLAKMQFRSILIDESTQATEPECMVPVVLGAKQLILVGDHCQLGPVVMCKKAAKAGLSQSLFERLVVLGIRPIRLQVQYRMHPALSAFPSNIFYEGSLQNGVTAADRVKKGFDFQWPQPDKPMFFYVTQGQEEIASSGTSYLNRTEAANVEKITTKLLKAGAKPDQIGIITPYEGQRSYLVQYMQFSGSLHTKLYQEVEIASVDAFQGREKDFIILSCVRANEHQGIGFLNDPRRLNVALTRARYGVIIVGNPKALSKQPLWNHLLNYYKEQKVLVEGPLNNLRESLMQFSKPRKLVNTINPGARFMTTAMYDAREAIIPGSVYDRSSQGRPSSMYFQTHDQIGMISAGPSHVAAMNIPIPFNLVMPPMPPPGYFGQANGPAAGRGTPKGKTGRGGRQKNRFGLPGPSQTNLPNSQASQDVASQPFSQGALTQGYISMSQPSQMSQPGLSQPELSQDSYLGDEFKSQIDVALSQDSTYQGERAYQHGGVTGLSQY
notes: UPF1, human; also called full-length GST-UPF1; unphosphorylated UPF1
With B3, in assay [2], the binding result is “binds”.

B4: GST-UPF1fl phosphorylated in vitro by SMG1 wt (natural protein, human, UniProt Q92900-2 1-1118, looked up)
chain: MSVEAYGPSSQTLTFLDTEEAELLGADTQGSEFEFTDFTLPSQTQTPPGGPGGPGGGGAGGPGGAGAGAAAGQLDAQVGPEGILQNGAVDDSVAKTSQLLAELNFEEDEEDTYYTKDLPIHACSYCGIHDPACVVYCNTSKKWFCNGRGNTSGSHIVNHLVRAKCKEVTLHKDGPLGETVLECYNCGCRNVFLLGFIPAKADSVVVLLCRQPCASQSSLKDINWDSSQWQPLIQDRCFLSWLVKIPSEQEQLRARQITAQQINKLEELWKENPSATLEDLEKPGVDEEPQHVLLRYEDAYQYQNIFGPLVKLEADYDKKLKESQTQDNITVRWDLGLNKKRIAYFTLPKTDSDMRLMQGDEICLRYKGDLAPLWKGIGHVIKVPDNYGDEIAIELRSSVGAPVEVTHNFQVDFVWKSTSFDRMQSALKTFAVDETSVSGYIYHKLLGHEVEDVIIKCQLPKRFTAQGLPDLNHSQVYAVKTVLQRPLSLIQGPPGTGKTVTSATIVYHLARQGNGPVLVCAPSNIAVDQLTEKIHQTGLKVVRLCAKSREAIDSPVSFLALHNQIRNMDSMPELQKLQQLKDETGELSSADEKRYRALKRTAERELLMNADVICCTCVGAGDPRLAKMQFRSILIDESTQATEPECMVPVVLGAKQLILVGDHCQLGPVVMCKKAAKAGLSQSLFERLVVLGIRPIRLQVQYRMHPALSAFPSNIFYEGSLQNGVTAADRVKKGFDFQWPQPDKPMFFYVTQGQEEIASSGTSYLNRTEAANVEKITTKLLKAGAKPDQIGIITPYEGQRSYLVQYMQFSGSLHTKLYQEVEIASVDAFQGREKDFIILSCVRANEHQGIGFLNDPRRLNVALTRARYGVIIVGNPKALSKQPLWNHLLNYYKEQKVLVEGPLNNLRESLMQFSKPRKLVNTINPGARFMTTAMYDAREAIIPGSVYDRSSQGRPSSMYFQTHDQIGMISAGPSHVAAMNIPIPFNLVMPPMPPPGYFGQANGPAAGRGTPKGKTGRGGRQKNRFGLPGPSQTNLPNSQASQDVASQPFSQGALTQGYISMSQPSQMSQPGLSQPELSQDSYLGDEFKSQIDVALSQDSTYQGERAYQHGGVTGLSQY
modifications: phosphorylated by SMG1 at SQ and TQ motifs present exclusively in the N- and C-terminal tails; detected sites include Thr28, Ser1078, Ser1096 and Ser1116
notes: UPF1, human; also called phospho-UPF1; phospho-UPF1fl
On to B4, for which the binding result in assay [2] is listed as “binds”.

B5: GST-UPF1CT (residues 917–1118) phosphorylated in vitro by SMG1 wt (domain or fragment, human, UniProt Q92900-2 917-1118, looked up)
chain: RKLVNTINPGARFMTTAMYDAREAIIPGSVYDRSSQGRPSSMYFQTHDQIGMISAGPSHVAAMNIPIPFNLVMPPMPPPGYFGQANGPAAGRGTPKGKTGRGGRQKNRFGLPGPSQTNLPNSQASQDVASQPFSQGALTQGYISMSQPSQMSQPGLSQPELSQDSYLGDEFKSQIDVALSQDSTYQGERAYQHGGVTGLSQY
modifications: phosphorylated in vitro by SMG1 at SQ motifs; sites not stated for this construct
notes: also called C-terminal tail of UPF1; source: E. coli BL21 (DE3) STAR pRARE, purified, then phosphorylated in vitro with SMG1 wt
For the molecule B5, in assay [1], the binding result is on record as “binds”.

B6: GST-UPF1CT4 (residues 1086–1118) phosphorylated in vitro by SMG1 wt (domain or fragment, human, UniProt Q92900-2 1086-1118, looked up)
chain: {GST}-EFKSQIDVALSQDSTYQGERAYQHGGVTGLSQY
modifications: also: phosphorylated in vitro by SMG1 at SQ motifs, sites not given here
notes: as for B1
On to B6, for which the binding result in assay [1] is recorded as “binds”.

The values are drawn from PMC4132714, “Phospho-dependent and phospho-independent interactions of the helicase UPF1 with the NMD factors SMG5–SMG7 and SMG6” (Nucleic Acids Research, 2014).
